# Measured values: patent publication US20250355001A1, “METHOD FOR DETECTING A TAU PROTEIN FRAGMENT IN A SAMPLE” (GTINVENT LIMITED, priority 2022, published 2025)
# Columns and labels:
# [1] = tested on: hT40, dGA, dGAE and truncated tau fragments; assay: Binding ELISA / epitope mapping of anti-tau scAbs with truncated tau proteins and 13mer peptides; design: species or system human; settings: for Tau proteins/fragments with positive scAb reactivity / Shortest region bound on hT40: Table 17, 'C' group scAbs; for Tau proteins/fragments with positive scAb reactivity: binding ELISA; for Shortest region bound on hT40: incl. 13mer peptides; for Detection scAb (Epitope): Table 28 (LoD table)
# In short: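 Serially double-diluted scAbs were applied to 2% MPBS-blocked wells carrying either 1 μg/ml full-length or truncated tau, or biotinylated 13mer peptides (1 μg/ml) captured on 5 μg/ml streptavidin. Absorbance after HRP anti-human C kappa secondary gave the binding signal.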
# [2] = biological target: dGAE aggregates (Homo sapiens, UniProt P10636); assay: Epitope occlusion assay: dGAE aggregation with/without LMTM, 423 mAb capture ELISA; format: biochemical; settings: total and supernatant samples; 423 mAb capture
# Sequence of dGAE aggregates (P10636 614-708): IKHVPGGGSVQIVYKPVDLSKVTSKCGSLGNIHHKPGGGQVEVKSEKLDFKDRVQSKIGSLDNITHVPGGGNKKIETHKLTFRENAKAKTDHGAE
# Description: During dGAE aggregation in vitro, scAb binding regions on dGA/dGAE are ‘hidden’ or ‘occluded’ which leads to a loss of immunoreactivity in aggregation samples. Here we have shown the occlusion of binding regions in aggregated dGAE samples and the recovery of immunoreactivity in the presence of LMTM, a tau-aggregation inhibitor. For preparing the aggregates, 10 μl 10 mM DTT was added to 1000 μl 100 μM dGAE and agitated with/without LMTM (1:5 ratio) at 700 rpm for 24 h at 37° C. Following overnight agitation, one third of each sample was kept aside as ‘total’ and the rest was spun down at 16000×g for 30 min and separated into ‘supernatant’ and ‘pellet’. The pellet was then resuspended in half the original volume for further experiments. […] Doubling dilutions of dGAE aggregate ‘total’, ‘supernatant’ and ‘pellet’ samples at 10 μg/ml starting concentration were added to designated wells in doubling dilutions in 1×PBS. dGAE monomer (non-aggregated) was included as assay control. All double dilutions were done in final volumes of 100 μl. This was left to incubate on lab bench for 1 h followed by the addition of test scAbs at 10 μg/ml. Anti-HuCk HRP labelled secondary antibody was added as described previously and ELISA data generated is represented using the graph below.
# [3] = biological target: T1, htau40 (Homo sapiens, UniProt P10636); assay: Biacore X100 SPR kinetics of anti-tau mAbs on immobilised htau40; format: binding
# T1 construct: Full length tau (hT40)
# T1 sequence (P10636 1-441 isoform P10636-8): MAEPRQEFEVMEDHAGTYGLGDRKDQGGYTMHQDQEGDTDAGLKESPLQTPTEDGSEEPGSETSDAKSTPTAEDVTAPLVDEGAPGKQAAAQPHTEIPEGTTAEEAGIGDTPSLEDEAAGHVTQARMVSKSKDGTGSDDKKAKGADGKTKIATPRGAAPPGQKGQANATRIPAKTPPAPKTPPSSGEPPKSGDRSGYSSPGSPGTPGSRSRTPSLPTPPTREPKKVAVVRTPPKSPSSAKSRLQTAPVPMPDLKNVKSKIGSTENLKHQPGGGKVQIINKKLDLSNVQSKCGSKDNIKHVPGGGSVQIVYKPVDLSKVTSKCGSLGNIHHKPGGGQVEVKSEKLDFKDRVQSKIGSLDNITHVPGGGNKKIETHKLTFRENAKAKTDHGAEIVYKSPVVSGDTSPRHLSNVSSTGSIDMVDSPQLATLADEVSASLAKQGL
# In short: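 Htau40 amine-coupled to CM5 chip (~250 RU, pH 4.0 immobilisation), reference flow cell subtracted; mAb injected at 0.78–25 nM in HBS-EP+, 120 s association, 600 s dissociation, glycine pH 1.5 regeneration. Kinetic and affinity constants from 1:1 binding model fit.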
# [4] = biological target: T2, hT40 (T441, SEQ ID NO: 1) (Homo sapiens, UniProt P10636); assay: Biacore X100 SPR kinetics of scAbs for hT40; format: binding; settings: Table 23; scAb captured, T441 (hT40) analyte; 1:1 model
# T2 construct: Full length tau (hT40)
# T2 sequence (P10636 1-441 isoform P10636-8): as above
# In short: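 Captured scAb on anti-HuCk CM5 surface (flow cell 1 as reference) in HBS-EP+, capture set for theoretical RMax 100 RU; hT40 injected multi-cycle (0.15625–100 nM) or single-cycle (6.25–100 nM), 120 s association, 420 s dissociation, glycine pH 2.0 regeneration. Kinetics and affinity from 1:1 binding model fit.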
# [5] = tested on: 13 aa tau peptides of hT40; assay: Alanine scanning mutagenesis (ASM) peptide ELISA; format: binding, human; settings: alanine substituted peptides; numbering SEQ ID NO: 1
# Description: Briefly, 5 μg/ml streptavidin (Thermo Fisher) was adsorbed to Nunc 96-well MaxiSorp plates and following incubation at 37° C. for 1 h, the plates were washed as normal and blocked with 2% MPBS. N-terminally biotinylated peptides (Prolmmune Ltd) were added to the plates and incubated for 1 h at 37° C. Subsequently, test scAbs at starting concentrations of 100-500 nM was added and double diluted across the plate for each peptide and incubated for 1 h at 37° C. Rest of the ELISA was conducted as described above and the plates were read at absorbance 450 nm. Immunoreactivity of the scAb of interest was quantified as the % of scAb was bound for each peptide at a chosen concentration (FIG. 15-20).
# [6] = biological target: T3, hT40 (Homo sapiens, UniProt P10636); assay: Sandwich ELISA limits of detection (LoD) of antibody pairs; format: binding
# T3 construct: Full length tau (hT40)
# T3 sequence (P10636 1-441 isoform P10636-8): as above
# From the text: The diverse panel of high affinity anti-tau antibodies (scAb and mAb formats) were paired in various combinations and tested in a Sandwich (or Capture) ELISA format to calculate their limits of detection (LoD) and their ability to differentiate between different tau species. Biologically, tau exists in 6 different isoforms and is subjected to numerous post translational modifications, some of them playing a significant role in the progression of neurodegeneration.
# For Sandwich ELISA using colourimetric detection, 96 well Maxisorp plates were coated with the capture antibody S1D12 mAb at 1 μg/ml for 1 h at RT followed by blocking with 2% MPBS as normal. Full length tau (hT40), at 1 μg/ml starting concentration was added to designated wells and double diluted across rest of the plates and left to incubate at R/T for 1 h. A series of detection scAbs with varying epitope recognition properties were added at 10 μg/ml to designated wells (FIG. 22). For colourimetric detection HRP conjugated anti-HuCk secondary antibody was used and the resulting immunoreaction was developed and absorbance at 450 nm measured as described previously. Cut-off point for a positive binding event was an absorbance value of 0.3 following background subtraction. In order to enhance the assay sensitivity, a chemiluminescent detection method was adopted where 50 μL SuperSignal ELISA Femto Substrate (Thermo Scientific) was added to each well following incubation with anti-HuCK HRP antibody and subsequent washing. The luminescence was read using Clariostar Plus microplate reader. A further modification to this protocol was done where various detection scAbs were directly conjugated with HRP and detected using chemiluminescent protocol as before. The lowest levels of detection achieved using different detection scAbs and a comparison of colourimetric and chemiluminescent methods of detection are shown in Table 28
# Similarly, a sandwich ELISA format was set up using S1G2 mAb at 1 μg/ml as the capture antibody and HRP conjugated S1D12 mAb for detection. The assay was conducted using chemiluminescent protocol described above.
# [7] = residue numbers of SEQ ID NO: 1 (hT40), CDR Tables 1-11
# [8] = Table 27, mAb format, immobilised htau40
Molecule,Tau proteins/fragments with positive scAb reactivity [1],Shortest region bound on hT40 [1],"Epitope ([1]; Table 26 summary, top scAbs, residues of hT40)",Detection scAb (Epitope) ([1]; residues of hT40),"Binding regions on hT40 ([1]; Table 33, core binding scAbs tested in epitope occlusion assays)","Epitope [1, 7]",immunoreactivity to dGAE aggregation samples prepared in the presence of LMTM [2],"ka [3, 8]","kd [3, 8]","Kd ([3]; as quoted in Example 32, read-out: affinity)",ka [4],kd [4],critical binding residues [5],"LOD for hT40 ([6]; S1G2 mAb capture, HRP labelled S1D12 mAb detection, chemiluminescence)","LoD (ng/ml) chemiluminescence detection ([6]; S1D12 mAb capture, hT40, SuperSignal ELISA Femto Substrate)","LoD (ng/ml) colourimetric detection ([6]; S1D12 mAb capture, hT40, detection scAb 10 μg/ml, anti-HuCk HRP)"
"CA4: anti-tau core clone, Table 10; SEQ ID NO: 368 (protein, CA4 amino acid sequence) scFv: QVQLQESGPSLVKPSQTLSLTCTVSGFSLTSYSVYWVRQAPGQALEWISIMYASGRVDYNPALKSRLSITRDTSKSQFSLSLSSVTTEDTAVYYCTRGIENWGPGLLVTVSSEGKSSGASGESKVDDDIQVTQSPSSLSASLTERVSITCRTSQSVNNYLSWYQQKPGQAPKLLIYYATRLYTDVPSRFSGSGSGTDYTLTITSLEADDTATYYCLQYDSTPLAFGGGTNVEIK","hT40, 239-441, 297-390 (dGA)",355-367,355-367,CA4 (355-367),355-367,355-367,increase in immunoreactivity,1.02e+06 M⁻¹ s⁻¹,0.001276 s⁻¹,3 nM,458100 M⁻¹ s⁻¹,0.001654 s⁻¹,"358 (D), 360 (I), 361 (T), 362 (H) and/or 364 (P)",–,–,–
"S1G2 mAb: S1G2 reformatted; heavy chain SEQ ID NO: 457, light chain 458 (antibody, S1G2 mAB Heavy Chain; S1G2 mAB Light Chain) heavy: QVQLQESGPSLVKPSQTLSLTCTVSGFSLTSNSVGWVRQAPGKAPEWVAGIDTDGEEGYNPALNSRLSITRDTSKSQVSLSLSSVTSEDTAVYYCGRSYRADGLAYGYVQAIDYWGPGLLVTVSSAKTTAPSVYPLAPVCGDTTGSSVTLGCLVKGYFPEPVTLTWNSGSLSSGVHTFPAVLQSDLYTLSSSVTVTSSTWPSQSITCNVAHPASSTKVDKKIEPRGPTIKPCPPCKCPAPNLLGGPSVFIFPPKIKDVLMISLSPIVTCVVVDVSEDDPDVQISWFVNNVEVHTAQTQTHREDYNSTLRVVSALPIQHQDWMSGKEFKCKVNNKDLPAPIERTISKPKGSVRAPQVYVLPPPEEEMTKKQVTLTCMVTDFMPEDIYVEWTNNGKTELNYKNTEPVLDSDGSYFMYSKLRVEKKNWVERNSYSCSVVHEGLHNHHTTKSFSRTPGK light: QAVVTQPSSVSGSLGQRVSITCSGSFIGISSVGWFQQLPGSGLRTIIVASDGRPSGVPDRFSMSKSGNTATLTISSLQAEDEADYFCGSSDRTPYTGVFGSGTRLTVLGGQPKSSPSVTLFPPSSEELETNKATLVCTITDFYPGVVTVDWKVDGTPVTQGMETTQPSKQSNNKYMASSYLTLTARAWERHSSYSCQVTHEGHTVEKSLSRADCS",–,–,–,–,–,–,–,–,–,–,–,–,–,~1 ng/mL,–,–
"CA2: anti-tau clone, Table 10; SEQ ID NO: 363 (protein, CA2 amino acid sequence) QVQLQESGPSLVKPSQTLSLTCTVSGFSLSSVAVNWVRQAPGKVPEWLGGIISNGGTGYNPALKSRLSITRDTSKSQVSLALTHVTTEDTAVYYCGRGVEWEGSMDYLGPGLLVTVSSEGKSSGSGSETKVDDQSVLTQPSSVSGFLGQRVTITCSGSSSNVGAGSYVGWYQQVPGSGLRILIYGATKRASGLPDRFSGSRSGNTATLTISSLQAEDEADYYCVSYQTDFTLVFGSGTRLTVLG","hT40, 1-49, 1-319, 1-155, 186-350, 348-441",1-155,–,CA2 (100-155),–,1-155,–,–,–,–,–,–,–,–,0.37 ng/mL,6 ng/mL
